Laboratory results taken from the RNAGym collection of RNA variant scans (doi:10.1093/molbev/msab373).

B1: Azoarcus group I ribozyme (parent)
chain: GUGCCUUGCGCCGGGAAACCACGCAAGGGAUGGUGUCAAAUUCGGCGAAACCUAAGCGCCCGCCCGGGCGUAUGGCAACGCCGAGCCAAGCUUCGGCGCCUGCGCCGAUGAAGGUGUAGAGACUAGACGGCACCCACCUAAGGCAAACGCUAUGGUGAAGGCAUAGUCCAGGGAGUGGCGAAAGUCACACAAACCGG

Variants of: B1
Experiment: reverse-splicing fitness (ratio to wild type); higher = more active; in vitro selection; Mg2+ level not given
In short: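 An in vitro group I ribozyme library with randomized positions was T7-transcribed and gel-purified. In triplicate, 10 pmol RNA in EPPS pH 7.5 was reacted with 50 pmoles of a 30-nt RNA substrate for 1 h at 37 °C across several added MgCl2 levels (1–48 mM), then stopped with EDTA. Products were reverse transcribed from a substrate-complementary primer, PCR-amplified and sequenced (HiSeq 4000). Fitness is a variant's read proportion after selection over that before, normalised to wild type.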

Variant	reverse-splicing fitness
C82U C169U U176G	0.00445
A111C A120C A145C C150G C169G U176G	0.00522
A111C A120C A145C C150G C169G U176A	0.00861
A111C A120C A145C C150G C169G U176C	0.00939
C82U A145U C150A C169G	0.00614
C82U A145U C150A C169U	0.00825
C82U A145U C150A C169A	0.00771
C82U A120U C150U U176A	0.0245
C82U A120U C150U U176G	0.00728
C82U A120U C150U U176C	0.0451
A111C A120C A145C C150G U176A	0.0198
A111C A120C A145C C150G U176G	0.00444
A111C A120C A145C C150G U176C	0.0391
C82U C169A	0.00905
C82U C169U	0.0149
C82U C169G	0.00984
C82U A145C C150A C169G	0.00677
C82U A145C C150A C169A	0.00751
C82U A145C C150A C169U	0.00854
C82U A145U C150G C169A U176G	0.00523
C82U A145U C150G C169A U176C	0.00964

Variant	reverse-splicing fitness
C82U A145U C150G C169A U176A	0.0105
C82U A145G C150A C169A U176C	0.0216
C82U A145G C150A C169A U176A	0.0196
C82U A145G C150A C169A U176G	0.00596
C82U C169A U176A	0.0127
C82U C169A U176C	0.0154
C82U C169A U176G	0.00439
A111C A120C	0.576
C82U A145C C150G	0.0813
C82U A145C C150U	0.172
C82U A145C C150A	0.0351
C82U A120U C169U U176G	0.00164
C82U A120U C169U U176A	0.00362
C82U A120U C169U U176C	0.0045
C82U C150U C169G U176C	0.015
C82U C150U C169G U176G	0.0052
C82U C150U C169G U176A	0.0135
A111C A120C A145C C150A C169U U176G	0.00564
A111C A120C A145C C150A C169U U176A	0.0155
A111C A120C A145C C150A C169U U176C	0.0108
C82U C150G C169U U176G	0.0055

Variant	reverse-splicing fitness
C82U C150G C169U U176C	0.01
C82U C150G C169U U176A	0.0076
C82U A145G C150G C169G U176C	0.0124
C82U A145G C150G C169G U176G	0.00548
C82U A145G C150G C169G U176A	0.01
C82U C150U C169U U176G	0.00558
C82U C150U C169U U176A	0.0128
C82U C150U C169U U176C	0.0135
C82U A145U C150G U176A	0.0424
C82U A145U C150G U176C	0.0567
C82U A145U C150G U176G	0.0104
A111C A120C A145C C150G C169A U176A	0.0076
A111C A120C A145C C150G C169A U176G	0.00595
A111C A120C A145C C150G C169A U176C	0.00793
C82U A145U C150A C169U U176A	0.0118
C82U A145U C150A C169U U176G	0.00535
C82U A145U C150A C169U U176C	0.0101
A111C A120C A145C C169A	0.00953
A111C A120C A145C C169G	0.0105
A111C A120C A145C C169U	0.17
C82U C150A U176G	0.0218

Variant	reverse-splicing fitness
C82U C150A U176A	0.0603
C82U C150A U176C	0.0779
A111C A120C A145C C150G C169U U176G	0.0054
A111C A120C A145C C150G C169U U176A	0.00995
A111C A120C A145C C150G C169U U176C	0.0163
C82U A145U C169G U176G	0.00447
C82U A145U C169G U176C	0.00956
C82U A145U C169G U176A	0.00811
A111C A120C A145C C150A C169A U176A	0.0152
A111C A120C A145C C150A C169A U176G	0.00655
A111C A120C A145C C150A C169A U176C	0.00638
C82U A145G C150G	0.0812
C82U A145G C150A	0.103
C82U A145G C150U	0.527
C82U A145G C169A U176A	0.0178
C82U A145G C169A U176C	0.0258
C82U A145G C169A U176G	0.00411
C82U A145C U176G	0.141
C82U A145C U176A	0.38
C82U A145C U176C	0.449
